# Reference: paper PMC6651182, “Importance of the Choice of a Recombinant System to Produce Large Amounts of Functional Membrane Protein hERG” (International Journal of Molecular Sciences, 2019)
# Key:
# [1] = target: T1, hERG(S1-coil) (Homo sapiens, UniProt Q12809, N598Q); assay: Electrophysiology on planar lipid bilayers with purified hERG(S1-coil) (stable HEK, DDM); assay type: biochemical; conditions: samples pre-incubated with 10 µM toxin; lipid bilayer; data not shown
# T1 construct: hERG(362-675) + coiled-coil
# Procedure: Crude membranes prepared from P. pastoris, Sf9 or stable HEK cells expressing hERG(S1-coil) were solubilized in 50 mM HEPES, pH 7.5, 300 mM KCl containing 1% DPC or DDM and 0.2% cholesteryl-hemisuccinate (CHS, Sigma Aldrich) at slow rotation at +4 °C for 1 h. Samples were centrifuged at 25,000 g for 15 min at +4 °C. […] After transferring to a column and washing the resin with 15 CV of 50 mM HEPES, pH 7.5, 300 mM KCl, 50 mM imidazole, 0.1% (w/v) DPC and 0.02% (w/v) CHS, hERG(S1-coil) was eluted with 250 mM imidazole in the same buffer. For purification of hERG(S1-coil) overexpressed in Sf9 cells in DPC, the supernatant was diluted 2-fold in 50 mM HEPES, pH 7.5 and transferred to a Strep-Tactin column (Strep-TactinSuperflow, IBA, Göttingen, Germany) at a ratio of 1 mL resin for 100 mL supernatant. […] Purified samples were analysed by SDS-PAGE and Western blot and protein concentrations determined by BCA assay.
# Planar lipid bilayers were formed at room temperature by painting a solution of azolectin (Type IVS, Sigma Aldrich) at 45 mg/mL in decane across a 200 µm aperture in a polysulfonate cup (Warner Instruments, Hamden, CT, USA) separating two chambers. […] A total of 500 ng of chimeric hERG protein was added in the cis chamber and the resulting channel activity recorded for at least 2 min. […]
# [2] = target: hERG-wt (Homo sapiens, UniProt Q12809); assay: Two-electrode voltage clamp in Xenopus oocytes, inhibition of hERG-wt tail current; conditions: mean ± SEM, n = 7
# Procedure: (§1) (A). Current-voltage relationship for hERG-wt and hERG(S1-coil). Currents measured at the end of a 4 seconds long depolarizing pulse (from −70 to 30 mV) were normalized to the maximal current for hERG-wt (n = 21) and hERG(S1-coil) (n = 19). (B). Steady-state voltage-dependence of activation. […] (C).
# (§2) Stage V–VI oocytes were removed from female Xenopus under tricaine anaesthesia. […] After intensive washing with OR2 solution, oocytes were injected with RNA preparation (about 30 nL per oocyte) and recorded 2–5 days after injection. Currents were recorded at room temperature using the two-electrode voltage clamp method. Electrodes were pulled from borosilicate glass and filled with 3 M KCl. Currents were measured by a Geneclamp 500 amplifier (Molecular Devices, San Jose, CA, USA) and digitized by a Digidata 1200 converter (Molecular Devices) using Clampex 5 software (Molecular Devices). […] We determined the concentration to obtain the half maximal inhibition (IC50) by measuring the peak tail current recorded during the second pulse at −50 mV in the presence of increasing concentrations of inhibitor and normalized the value to the current measured in the absence of inhibitor. […] The significance of the difference between two results was determined using the unpaired Student’s test set at the 0.01 level.
# [3] = target: hERG(S1-coil) (Homo sapiens, UniProt Q12809); assay: Two-electrode voltage clamp in Xenopus oocytes, inhibition of hERG(S1-coil) tail current; conditions: mean ± SEM, n = 8
# Procedure: as §1, §2
substance,measurement,setting,value
"BeKm-1 (RPTDIKCSESYQCFPVCKSRFGKTNGRCVNGFCDCF; UniProt Q9BKB7 22-57, looked up)",current at −100 mV,[1],did not have any current
same,IC50,[2],21.7 ± 2.76 nM
same,IC50,[3],24.9 ± 3.77 nM
